Experimental findings from publication PMC5696371, “The HSF1–PARP13–PARP1 complex facilitates DNA repair and promotes mammary tumorigenesis” (Nature Communications, 2017) are described below.

This experiment addresses T1, hPARP13-His (human, UniProt Q7Z2W4 1-902).
T1 construct: human PARP13 cDNA in pET21a, His tag at the C terminus; also called His-tagged hPARP13; source: E. coli, purified (Ni Sepharose 6 Fast Flow); not shown: His, C-terminal, kept
As to the kind of experiment: pull-down; purified GST fusion proteins and purified hPARP13-His mixed in NT buffer (50 mM Tris-HCl pH 7.5, 150 mM NaCl, 1 mM EDTA, 0.5% NP40) for 1 h at 4 °C, then glutathione-sepharose beads 2 h at 4 °C; immunoblotting. Conditions: both partners purified. A general note: In western blotting, separated proteins are transferred to a membrane and probed.

T1 sequence (Q7Z2W4 whole entry): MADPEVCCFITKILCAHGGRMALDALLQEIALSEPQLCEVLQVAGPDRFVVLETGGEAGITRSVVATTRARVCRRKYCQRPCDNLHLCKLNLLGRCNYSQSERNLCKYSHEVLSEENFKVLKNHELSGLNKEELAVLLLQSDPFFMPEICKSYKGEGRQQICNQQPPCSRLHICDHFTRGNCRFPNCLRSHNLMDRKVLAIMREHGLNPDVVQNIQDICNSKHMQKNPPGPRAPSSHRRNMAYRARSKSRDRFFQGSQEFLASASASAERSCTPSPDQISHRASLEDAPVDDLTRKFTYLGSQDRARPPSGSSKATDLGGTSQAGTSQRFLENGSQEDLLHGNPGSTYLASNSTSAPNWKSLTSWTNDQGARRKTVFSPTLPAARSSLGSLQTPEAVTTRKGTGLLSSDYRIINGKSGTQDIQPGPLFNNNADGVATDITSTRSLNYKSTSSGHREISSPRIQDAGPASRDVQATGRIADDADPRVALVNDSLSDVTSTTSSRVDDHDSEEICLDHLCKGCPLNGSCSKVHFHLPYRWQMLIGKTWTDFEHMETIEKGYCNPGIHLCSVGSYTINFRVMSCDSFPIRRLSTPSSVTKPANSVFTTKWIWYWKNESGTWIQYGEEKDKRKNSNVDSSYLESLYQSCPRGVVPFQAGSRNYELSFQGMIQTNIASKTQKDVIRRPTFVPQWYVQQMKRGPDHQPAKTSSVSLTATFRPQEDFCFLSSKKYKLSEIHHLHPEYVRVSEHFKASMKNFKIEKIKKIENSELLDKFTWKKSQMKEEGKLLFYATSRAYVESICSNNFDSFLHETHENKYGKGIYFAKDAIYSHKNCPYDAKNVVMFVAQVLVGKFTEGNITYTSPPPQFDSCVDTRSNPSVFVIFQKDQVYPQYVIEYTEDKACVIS

B1: GST-hHSF1 (natural protein, human, UniProt Q00613 1-529, looked up)
chain: MDLPVGPGAAGPSNVPAFLTKLWTLVSDPDTDALICWSPSGNSFHVFDQGQFAKEVLPKYFKHNNMASFVRQLNMYGFRKVVHIEQGGLVKPERDDTEFQHPCFLRGQEQLLENIKRKVTSVSTLKSEDIKIRQDSVTKLLTDVQLMKGKQECMDSKLLAMKHENEALWREVASLRQKHAQQQKVVNKLIQFLISLVQSNRILGVKRKIPLMLNDSGSAHSMPKYSRQFSLEHVHGSGPYSAPSPAYSSSSLYAPDAVASSGPIISDITELAPASPMASPGGSIDERPLSSSPLVRVKEEPPSPPQSPRVEEASPGRPSSVDTLLSPTALIDSILRESEPAPASVTALTDARGHTDTEGRPPSPPPTSTPEKCLSVACLDKNELSDHLDAMDSNLDNLQTMLSSHGFSVDTSALLDLFSPSVTVPDMSLPDLDSSLASIQELLSPQEPPRPPEAENSSPDSGKQLVHYTAQPLFLLDPGSVDTGSNDLPVLFELGEGSYFSEGDGFAEDPTISLLTGSEPPKAKDPTVS
notes: human HSF1 fused to GST; the legend marks 'full-length GST-fusion proteins'; source: E. coli, purified (Glutathione Sepharose 4B)
For B1, the binding result is reported as “binds”.
